Results as given in publication PMC5469495, “MicroRNA319-regulated TCPs interact with FBHs and PFT1 to activate CO transcription and control flowering time in Arabidopsis” (PLoS Genetics, 2017).

T1: PFT1-CFP (Arabidopsis thaliana, UniProt Q7XYY2 1-836)
T1 construct: PFT1 (MED25), Arabidopsis thaliana, At1g25540; FRET donor; also called PHYTOCHROME AND FLOWERING TIME 1; MED25; source: Arabidopsis protoplast cells, co-expressed
T1 sequence (looked up): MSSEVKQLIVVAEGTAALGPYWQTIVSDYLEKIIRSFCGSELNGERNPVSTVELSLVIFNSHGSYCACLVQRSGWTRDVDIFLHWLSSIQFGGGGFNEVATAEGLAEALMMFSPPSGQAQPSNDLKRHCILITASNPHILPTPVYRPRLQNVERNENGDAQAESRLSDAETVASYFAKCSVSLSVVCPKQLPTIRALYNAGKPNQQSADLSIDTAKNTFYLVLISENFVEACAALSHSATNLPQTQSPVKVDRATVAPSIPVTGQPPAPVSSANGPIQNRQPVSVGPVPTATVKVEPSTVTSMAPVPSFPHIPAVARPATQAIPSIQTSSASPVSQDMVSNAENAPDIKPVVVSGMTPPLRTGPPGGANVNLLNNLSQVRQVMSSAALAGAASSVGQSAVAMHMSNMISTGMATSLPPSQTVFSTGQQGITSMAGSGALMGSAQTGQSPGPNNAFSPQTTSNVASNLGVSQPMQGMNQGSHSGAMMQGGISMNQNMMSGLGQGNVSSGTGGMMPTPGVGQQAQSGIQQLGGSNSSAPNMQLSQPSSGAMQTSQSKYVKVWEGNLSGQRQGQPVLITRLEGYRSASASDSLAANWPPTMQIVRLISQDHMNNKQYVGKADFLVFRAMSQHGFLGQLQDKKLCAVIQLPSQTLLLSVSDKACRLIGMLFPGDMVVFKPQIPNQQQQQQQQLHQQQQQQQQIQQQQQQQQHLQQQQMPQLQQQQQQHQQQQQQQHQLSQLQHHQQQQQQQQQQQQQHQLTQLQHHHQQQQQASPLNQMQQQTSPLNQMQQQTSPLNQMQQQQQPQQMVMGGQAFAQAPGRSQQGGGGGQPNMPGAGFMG

T2: PFT1-YFP (Arabidopsis thaliana, UniProt Q7XYY2 1-836)
T2 construct: PFT1 (MED25), Arabidopsis thaliana, At1g25540; FRET acceptor; also called PHYTOCHROME AND FLOWERING TIME 1; MED25; source: Arabidopsis protoplast cells, co-expressed
T2 sequence (looked up): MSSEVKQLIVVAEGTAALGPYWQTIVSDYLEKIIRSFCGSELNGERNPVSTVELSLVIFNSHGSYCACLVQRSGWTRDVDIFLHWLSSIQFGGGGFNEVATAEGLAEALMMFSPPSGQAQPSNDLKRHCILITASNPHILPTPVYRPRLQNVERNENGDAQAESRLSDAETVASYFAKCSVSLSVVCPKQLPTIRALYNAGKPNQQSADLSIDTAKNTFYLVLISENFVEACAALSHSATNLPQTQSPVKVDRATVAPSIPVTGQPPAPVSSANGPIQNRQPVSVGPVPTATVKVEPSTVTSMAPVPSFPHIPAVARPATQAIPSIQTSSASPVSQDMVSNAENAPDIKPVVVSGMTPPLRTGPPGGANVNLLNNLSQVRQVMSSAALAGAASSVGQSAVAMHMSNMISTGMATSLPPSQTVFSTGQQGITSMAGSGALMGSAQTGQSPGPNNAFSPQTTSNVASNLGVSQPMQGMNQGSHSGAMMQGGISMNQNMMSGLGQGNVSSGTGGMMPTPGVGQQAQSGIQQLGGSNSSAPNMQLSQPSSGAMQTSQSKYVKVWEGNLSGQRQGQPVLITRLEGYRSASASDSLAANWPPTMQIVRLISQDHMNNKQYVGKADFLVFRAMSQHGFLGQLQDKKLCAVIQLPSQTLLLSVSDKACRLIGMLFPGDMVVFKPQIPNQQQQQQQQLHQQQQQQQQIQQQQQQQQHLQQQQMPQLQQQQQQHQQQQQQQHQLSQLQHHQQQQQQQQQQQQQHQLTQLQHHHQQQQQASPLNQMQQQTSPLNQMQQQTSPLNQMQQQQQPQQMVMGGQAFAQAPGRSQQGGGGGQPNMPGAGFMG

B1: FBH1-YFP (natural protein, Arabidopsis thaliana, UniProt Q9C8P8 1-259, looked up)
chain: MQSTHISGGSSGGGGGGGGEVSRSGLSRIRSAPATWIETLLEEDEEEGLKPNLCLTELLTGNNNSGGVITSRDDSFEFLSSVEQGLYNHHQGGGFHRQNSSPADFLSGSGSGTDGYFSNFGIPANYDYLSTNVDISPTKRSRDMETQFSSQLKEEQMSGGISGMMDMNMDKIFEDSVPCRVRAKRGCATHPRSIAERVRRTRISDRIRRLQELVPNMDKQTNTADMLEEAVEYVKALQSQIQELTEQQKRCKCKPKEEQ
notes: FBH1, Arabidopsis thaliana, At1g35460; FRET acceptor; also called FLOWERING BHLH 1; source: Arabidopsis protoplast cells, co-expressed

Assays:
Assay in all cases: FRET or BRET; FLIM-FRET in Arabidopsis protoplast cells, 24 h after transformation; CFP fusion as donor, YFP fusion as acceptor; CFP lifetime in nuclei; negative controls TCP4-CFP/YFP tauD 2.59 ± 0.39 ns and PFT1-CFP/YFP tauD 2.80 ± 0.28 ns
Conditions in all cases: partners not purified
PFT1-CFP = target: T1, PFT1-CFP
FBH1-YFP = target: B1
PFT1-YFP = target: T2, PFT1-YFP

Binder | average CFP fluorescence lifetime (tauDA) (PFT1-CFP) | average CFP fluorescence lifetime (tauDA) (FBH1-YFP) | average CFP fluorescence lifetime (tauDA) (PFT1-YFP)
B1 | 0.95 ns |  | 
TCP4-CFP (natural protein, Arabidopsis thaliana, UniProt Q8LPR5 1-420, looked up, TCP4, Arabidopsis thaliana, At3g15030; FRET donor; source: Arabidopsis protoplast cells, co-expressed) MSDDQFHHPPPPSSMRHRSTSDAADGGCGEIVEVQGGHIVRSTGRKDRHSKVCTAKGPRDRRVRLSAHTAIQFYDVQDRLGFDRPSKAVDWLIKKAKTSIDELAELPPWNPADAIRLAAANAKPRRTTAKTQISPSPPPPQQQQQQQQLQFGVGFNGGGAEHPSNNESSFLPPSMDSDSIADTIKSFFPVIGSSTEAPSNHNLMHNYHHQHPPDLLSRTNSQNQDLRLSLQSFPDGPPSLLHHQHHHHTSASASEPTLFYGQSNPLGFDTSSWEQQSSEFGRIQRLVAWNSGGGGGATDTGNGGGFLFAPPTPSTTSFQPVLGQSQQLYSQRGPLQSSYSPMIRAWFDPHHHHQSISTDDLNHHHHLPPPVHQSAIPGIGFASGEFSSGFRIPARFQGQEEEQHDGLTHKPSSASSISRH |  | 0.99 ns | 0.9 ns
